The text below walks through data of patent US20090142280A1.

In one data set the target is LL-37 (…) (human). Nature of the data set: cell-based or functional assay.
In data set [1] the target is oligopeptide-10 (HB64), …-NH2. Nature of the data set: cell-based or functional assay.
Data set [2] deals with LL-37 (LLGDFFRKSKEKIGKEFKRIVQRIKDFLRNLVPRTES).
For data set [3], the system named is T1, oligopeptide-10 (HB64), FAKALKALLKALKAL-NH2.
T1 sequence: FAKALKALLKALKAL

Data set [4] deals with HB1345, decanoyl-KFKWPW-NH2. As to the kind of experiment: cell-based or functional assay.
The target of data set [5] is hexapeptide-21 (HB168), FALLKL-NH2. As to the kind of experiment: cell-based or functional assay.

Some results are limits rather than exact numbers.

In turn, chymotrypsin (Sigma-Aldrich) (enzyme) yielded a Survival of peptide (1 mg/mL) with chymotrypsin 22 µg/mL, no inhibitor, LC/MS, Expt. 39 in the data set with LL-37 (…) (human) below 1 h. In data set [1], this substance registered a Survival of peptide (1 mg/mL) with chymotrypsin 25 µg/mL, no inhibitor, LC/MS, Expt. 34 below 1 h.

elastase (Sigma-Aldrich) (enzyme) displayed a Survival of peptide (1 mg/mL) with elastase 25 µg/mL, no inhibitor, LC/MS, Expt. 22 in data set [1] below 1 h.

In the data set with LL-37 (…) (human), kallikrein (Sigma-Aldrich) (enzyme) yielded a Survival of peptide (1 mg/mL) with kallikrein 22 µg/mL, no inhibitor, LC/MS, Expt. 41 below 4 h; a Survival of peptide (1 mg/mL) with kallikrein 22 µg/mL, no inhibitor, LC/MS, Expt. 47 below 4 h; a Survival of peptide (1 mg/mL) with kallikrein 22 µg/mL, no inhibitor, LC/MS, Expt. 49 below 1 h; a Survival of peptide (1 mg/mL) with kallikrein 22 µg/mL, no inhibitor, LC/MS, Expt. 55 below 1 h. The same substance gave a Survival of peptide (1 mg/mL) with kallikrein 25 µg/mL, no inhibitor, LC/MS, Expt. 27 in data set [1] below 24 h.

On to plasmin (Sigma-Aldrich), for which, in data set [2], the “TIC trace and mass spectrum (LC/MS) after 1-hour incubation” value is on record as “the molecular weight of parent peptide LL-37 was undetectable”. Also, in data set [3], the “TIC and XIC traces (LC/MS) after a 4-hour exposure” value is given as “while most of the HB64 peptide was degraded, some parent peptide could still be detected”.

In the data set with LL-37 (…) (human), plasmin (Sigma-Aldrich) (enzyme) had a Survival of peptide (1 mg/mL) with plasmin 22 µg/mL, no inhibitor, LC/MS, Expt. 37 below 1 h and a Survival of peptide (1 mg/mL) with plasmin 22 µg/mL, no inhibitor, LC/MS, Expt. 38 below 45 min. In data set [1], the Survival of peptide (1 mg/mL) with plasmin 20 µg/mL, no inhibitor, LC/MS, Expt. 45 was below 4 h; the Survival of peptide (1 mg/mL) with plasmin 25 µg/mL, no inhibitor, LC/MS, Expt. 25 is below 4 h; the Survival of peptide (1 mg/mL) with plasmin 25 µg/mL, no inhibitor, LC/MS, Expt. 30 was below 6 h; the Survival of peptide (1 mg/mL) with plasmin 46 µg/mL, no inhibitor, LC/MS, Expt. 32 is below 4 h.

As for trypsin (Sigma-Aldrich), in data set [3], the “TIC traces (LC/MS) of peptide degradation at time zero, 1 hour and 23 hours” value is “the parent peak (represents the full-length, non-degraded peptide) in the TIC traces was reduced over time and peaks for various breakdown products increased in intensity over time”.

For trypsin (Sigma-Aldrich) (enzyme), the Survival of peptide (1 mg/mL) with trypsin 25 µg/mL, no inhibitor, LC/MS, Expt. 8 in data set [4] is below 1 h. The same substance displayed a Survival of peptide (1 mg/mL) with trypsin 25 µg/mL, no inhibitor, LC/MS, Expt. 6 in data set [5] below 1 h. In data set [1], this substance had a Survival of peptide (1 mg/mL) with trypsin 25 µg/mL, no inhibitor, LC/MS, Expt. 4 below 1 h; a Survival of peptide (1 mg/mL) with trypsin 25 µg/mL, no inhibitor, LC/MS, Expt. 10 below 1 h; a Survival of peptide (1 mg/mL) with trypsin 25 µg/mL, no inhibitor, LC/MS, Expt. 12 below 1 h.

For the substance urokinase (enzyme), in the data set with LL-37 (…) (human), the Survival of peptide (1 mg/mL) with urokinase 22 µg/mL, no inhibitor, LC/MS, Expt. 51 was below 24 h and the Survival of peptide (1 mg/mL) with urokinase 22 µg/mL, no inhibitor, LC/MS, Expt. 53 was below 24 h.
